First the molecules themselves.
B1: C560 (antibody, V domains shown)
VH: EVQLVESGGGLVQPGRSLRLSCAASGFTFDDYAMHWVRQAPGKGLEWVSGVSWNSGTIGYADSVKGRFTISRDNAKNSLYLQMNSLRAEDTALYYCAKIADIVRAYDFWSGQHFDAFDIWGQGTMVTVSS
VL: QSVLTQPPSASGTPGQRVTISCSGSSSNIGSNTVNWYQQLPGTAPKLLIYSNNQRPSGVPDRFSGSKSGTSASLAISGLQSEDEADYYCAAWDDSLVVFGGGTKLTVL
B2: C550 (antibody, V domains shown)
VH: EVQLVQSGAEVKKPGESLKISCKGSGYRFTNYWIGWVRQMPGKGLEWMGIIYPGDSDTRYSPSFQGQVTISADKSITTAYLQWSSLKASDTAMYYCARLSDRWYSPFDPWGQGTLVTVSS
VL: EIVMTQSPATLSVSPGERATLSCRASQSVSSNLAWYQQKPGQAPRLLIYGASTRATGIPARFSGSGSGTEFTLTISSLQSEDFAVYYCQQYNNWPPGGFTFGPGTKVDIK
B3: C552 (antibody, V domains shown)
VH: QVQLVESGGGVVQPGRSLRLSCAASGFTFSSYAMHWVRQAPGKGLEWVALISYDGSNKHYADSVKGRFTISRDNSKNTLYLQMNSLRAEDTAVYYCARAGTTNSDYFDYWGQGTLVTVSS
VL: SYELTQPPSVSVAPGKTARITCGGNNIGSKSVHWYQQKPGQAPVLVIYYDTDRPSGIPERFSGSNSGNTATLTISRVEAGDEADYYCQVWDSSSALWVFGGGTKLTVL
B4: C553 (antibody, V domains shown)
VH: B3 VH with S31N, A33E, M34I, L50G, N57T, H59Y, A88P, Y94F
VL: B3 VL with K16M, N26T, P39A, T51S, A95V
B5: C556 (antibody, V domains shown)
VH: QVQLVQSGAEVKKPGASVKVSCKASGYTFTYYYMHWVRQAPGQGLEWMGIINPSGGSTSYAQKFQGRVTMTRDTSTSTVYMELSSLRSEDTAVYYCARPLLPGETGSLNRLDYWGQGTLVTVSS
VL: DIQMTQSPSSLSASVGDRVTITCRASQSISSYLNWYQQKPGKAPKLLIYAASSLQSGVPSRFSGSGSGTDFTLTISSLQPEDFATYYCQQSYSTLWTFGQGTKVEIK
B6: C558 (antibody, V domains shown)
VH: EVQLVQSGAEVKKPGESLKISCKVSGYTFTNYWIGWVRQMPGKGLEWMGIIYPGDSDTRYSPSFQGQVTISADKSIITAYLQWSSLKASDTAMYYCARVPSSSDYGDYGGFEYWGQGTLVTVSS
VL: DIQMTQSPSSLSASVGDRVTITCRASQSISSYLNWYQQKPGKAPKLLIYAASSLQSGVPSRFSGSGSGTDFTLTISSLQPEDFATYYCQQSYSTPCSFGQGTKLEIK
B7: C559 (antibody, V domains shown)
VH: B6 VH with Y52F, K74R, I77T, S84R
VL: DIQMTQSPSSLSASVGDRVTITCRASQTITIYLNWYQQKPGKAPKLLIYAASSLQSGVPSRFSGSGSGTDFTLTISSLQPEDFATYYCQQSYSTPCSFGQGTKLEIK
B8: C555 (antibody, V domains shown)
VH: EVQLVESGGGLVKPGGSLRLSCAASGLTFSTTWMSWVRQAPGKGLEWVGRIKSKGDGGTTDFAGPVKGRFSISRDDSKNTLYLHMNSLKTEDTAVYYCTTDDPGSYYYGMDVWGQGTTVTVSS
VL: QTVVTQEPSLTVSPGGTVTLTCASSTGAVTSGHYPYWFQQKPGQAPRTLIYATSNKHSWTPARFSGSLLGGKAALTLSGAQPEDEADYYCLLSYSGARVFGGGTKLTVL
B9: C577 (antibody, V domains shown)
VH: QVQLVQSGAEVKKPGSSVKVSCKASGDTFSIYAFSWVRQAPGQGLQWMGAIIPLLGTTNYAQKFLGRVTITADESTSTTFMELSSLTSEDTAVYHCATFHVAYGDYIPFDSWGQGTLVIVSS
VL: not shown
B10: C571 (antibody, V domains shown)
VH: EVQLVESGGGLIQPGGSLKLSCVVSGFTVSRNYISWVRQAPGKGLEWVSVLFAGGSTFYADSVKGRFAISRDNSNNTLFLQMNSLRVEDTAIYYCARGDGELIFDQWGQGTLVTVSS
VL: QSVLTQPPSVSGAPGQRVTIVCTGTSSNIGAGYDVHWYQQLPGRAPKVLVSGNNIRPSEVPDRFSGSRSGTSASLAITSLQPEDEAQYYCQSYDSNLYAVFGGGTKLTVL
B11: C569 (antibody, V domains shown)
VH: QVQLVESGGNVVQPGRSLRLSCAASGFTFSNYGMHWIRQAPGKGLEWVAVISYDGSDKYYADSVKGRVTISRDNSKNTLYLQMNSLRAEDTAVYYCAKGGPYGDHVRSDYWGLGTLVTVSS
VL: DIQMTQSPSSLSASVGDRVTITCQASQDISNYLNWYQQKPGKVPKLLIYDASNLETGVPSRFSGSGSGTDFTFTISSLQPEDIATYYCQQFHNLPLTFGQGTKLEIK
B12: C568 (antibody, V domains shown)
VH: QVQLVQSGAEVKKPGASVKVSCTASGYTFSSYYIHWVRQAPGQGLEWMGIINPGAGSTSYAQKFQGRVAMTTDTSTRTVYMELSSLRSDDTAVYYCARDEAFLPSAIFVGDYWGQGTLVTVSS
VL: DIQMTQSPSSLSASVGDRVTITCRASQGIRNDLGWYQQKPGKAPKRLIYAASNLQSGVPSRFSGSGSGTEFTLTISSLQPEDFATYYCLQHSTYPHTWTFGQGTKVEIK
B13: C581 (antibody, V domains shown)
VH: EVQLVQSGAEVKKPGESLKISCKGSGYRFTSYWIAWVRQMPGKGLEWMGIIYPGDSDTRYSPSFQGQVTISADQSISTAYLQWSSLKASDTAMYYCARGGPPGGVKLELTDYWGQGALVTVSS
VL: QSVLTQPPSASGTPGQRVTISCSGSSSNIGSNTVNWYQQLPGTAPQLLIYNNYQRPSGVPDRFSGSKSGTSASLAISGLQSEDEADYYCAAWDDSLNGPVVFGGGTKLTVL
B14: C570 (antibody, V domains shown)
VH: QVQLQESGPGLVKPSETLSLTCTVSGASISSYYWSWIRQPPGKGLEWIGYIYYSGSTNYNPSLKSRVTISLDTSKNQFSLQLSSVTAADTAVYYCATYYFDNSGYSYGLDVWGQGTTVTVSS
VL: DIQMTQSPSSLSASVGDRVTIACRASQSISSYLHWYQQQPGKAPKLLIYAVTNLQSGVPSRFSGSGSGTDFTLTISSLQPEDFATYYCQQSYSLPQTFGQGTKVEIK
B15: C578 (antibody, V domains shown)
VH: QVQLVESGGGVVQPGRSLRLSCAASGFTFSSSGMHWVRQAPGKGLEWVAIISYDGSNKYYADSVKGRFTISRDNSKNTLSLQMNSLRAEDTAVYYCAKDPLPFRDFFYYYMDVWGKGTTVTVSS
VL: QSALTQPASVSGSPGQSITISCTGTSSDVGGYNYVSWYQQHPGKAPKLMIYDVSNRPSGVSNRFSGSKSGNTASLTISGLQAEDEADYYCSSYTSSSTLGVFGTGTKVTVL
B16: C573 (antibody, V domains shown)
VH: QVQLQESGPGLVKPSGTLSLTCAVSGGSISTVNWWSWVRQPPGKGLEWIGEIHHSGNTNHNPSLRSRVTISVDKSKNQFSLKLRSVTAADTAVYYCARDGGRPGDAFDLWGQGTMVTVSS
VL: QSALTQPASVSGSPGQSITISCTGTSSDVGGYNYVSWYQQHPGKVPKVMIYDVSNRPSGISNRFSGSKSGNTASLTISGLQAEDEADYYCNSYRSNSTRVFGTGTKVTV
B17: C708 (antibody, V domains shown)
VH: EVQLVESGGGLVQPGGSLRLSCAASGFSFSTYWMSWVRQAPGKGLEWVADIKQDGSEKYFVDSVKGRFTISRDNAKNSLYLHLNSLRAEDTAVYYCAREMAGSGNYYWFGYGMDVWGQGTTVTVSS
VL: IRMTQSPSSVSASVGDRVTITCRASQGISSWLAWYQQKPGKAPKLLIYAASSLQSGVPSRFSGSESGTDFTLTISSLQPEDFATYYCQQANSFPLTFGGGTKVEIK
B18: C580 (antibody, V domains shown)
VH: EVQLVQSGAEVKKAGESLKISCNSSGYSFTNYWIAWVRQVPGKGLEWMGIIYLGDSDTRYSPSFQGRVTISADKSISAAYLHWSSLKASDTAIYYCARGGPPGGVKLELTDFWGQGTLVTVSS
VL: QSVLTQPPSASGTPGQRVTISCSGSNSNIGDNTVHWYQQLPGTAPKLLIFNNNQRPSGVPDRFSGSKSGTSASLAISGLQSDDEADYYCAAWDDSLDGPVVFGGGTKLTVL
B19: C572 (antibody, V domains shown)
VH: EVQLVESGGGLIKPGRSLRLSCTASGFTFGDYAMTWFRQAPGKGLEWVGFIRSKAYGGTTGYAASVKYRFTISRDDSKSIAYLQMDSLKTEDTAVYYCTRWDGWSQHDYWGQGTLVTVSS
VL: DIVMTQSPLSLSVTPGEPASISCRSSQSLLHSNGNNYFDWYLQKPGQSPQLLIYLASNRASGVPDRFSGSGSGTDFTLKISRVEAEDVGVYYCMQVLQIPYTFGQGTKLEI
B20: C567 (antibody, V domains shown)
VH: QVQLQESGPGLVKPSETLSLTCTVSGGSVINGSYYWSWIRQPPGKGLEWIGFVYYSGSTNYNPSLKSRVTISVDTSKNQFSLNLNSVTAADTAVYYCATGSKSSYYFDYWGQGTLVTVSS
VL: QSVLTQPPSVSAAPGQKVTISCSGSSSNIGNNYVSWYQQLPGAAPKLLIYENNMRPSGIPDRFSGSKSGTSATLGITGLQTGDEADYYCGTWDSSLSVPYVFGTGTRVTVL
B21: C576 (antibody, V domains shown)
VH: QVQLVQSGAEVKKPGSSVKVSCKASGGTFSIYAISWVRQAPGQGLEWMGGIIPILGTANYAQKFQGRVTITADESTSTAYMELSSLRSEDTAVYYCASFHVAYGDYIPFDYWGQGTLVTVSS
VL: not shown
B22: C709 (antibody, V domains shown)
VH: QVQLVQSGAEVRKPGASVKVSCMASGYTFNTYDINWVRQGTGQGLEWMGWMNPNSGNTGHAQKFQGRVAMTVNTSMNTAYMELSSLRSEDTAVYYCARGADMLNVAVGADFDYWGQGTLVTVSS
VL: QSALTQPPSASGSPGQSVTISCTGTSSDVGGYNFVSWFQQHPGKAPKLMIYEVSKRPSGVPDRFSGSKSANTASLTVSGLQAEDEADYFCSSYAGSNNWVFGGGTKLTVL
B23: C574 (antibody, V domains shown)
VH: QVQLVQSGAEVKKPGASVKVSCKASGYTFTSYGFSWVRQAPGQGLEWLGWISAYNGNTNYAQKLQGRVTMTTDTSTSTAYMELRSLRSDDTAVYYCARAIAVAGTSGEFDYWGQGTLVTVSS
VL: not shown
B24: C565 (antibody, V domains shown)
VH: EVQLVESGGGLIQPGGSLRLSCAASGLIVSSNYMNWVRQAPGKGLEWVSLLYSGGSTYYADSVKGRFTISRDNSKNTLYLQMNSLRPEDTAVYYCARDLSVVGAFDIWGQGTMVTVSS
VL: EIVLTQSPGTLSLSPGERATLSCRASQSLPSTYLAWYQQKRGQAPRLLIYGASSRATGIPDRFSGSGSGTDFTLTISRLEPEDFAVYYCQQYGTSPRVTFGPGTKVDIK
B25: C566 (antibody, V domains shown)
VH: QVQLQESGPGLVKSSQTLSLNCSVFGASISSGGYYWTWIRQHPGKGLEWIGYIHYRGTYYNPSLKSRVTMSVDTSKNQFSLKVRSVSAADTAIYYCARAIVVVTLNWFDLWGQGTLVTVSS
VL: NFMLTQPHSVSESPGKTVTISCSGSGGSIASNYVQWYQQRPGSAPTAVIYEDNQRPSGVPDRFSGSIDSSSNSASLTISGLKTEDEADYYCQSYDTSNPVIFGGGTKLTV

Positions count from the first letter of the chain named.

In one assay the target is SARS-CoV-2 spike protein receptor binding domain (RBD) (SARS-CoV-2, UniProt P0DTC2 319-539). Put plainly: ELISA, RBD coated on plate, mAb titrated. In general terms: An ELISA detects its analyte on a solid surface through an enzyme-linked reagent.
A word on the EC50: it is the concentration that produces a half-maximal response. High values mean weaker potency, low ones greater potency. Regarding B1, the EC50 is 1.6 ng/mL.

B2: a half-maximal effect (EC50) was put at 2.56 ng/mL.

As to B3, the EC50 was 1.08 ng/mL.

Molecule B4 had an EC50 of 1.19 ng/mL.

In the case of B5, the midpoint of the response, the EC50, lay at 1.36 ng/mL.

Consider B6, for which the midpoint of the response, the EC50, lay at 2.41 ng/mL.

Regarding B7, the EC50 was determined as 2.89 ng/mL.

In turn, B8 returned an EC50 of 2.88 ng/mL.

Another assay shares this target. The assay can be described thus: ELISA on plate-coated RBD.
The molecule B9 showed an EC50 of 1.32 ng/mL.

B10 had an EC50 of 4.63 ng/mL.

B11 came in with an EC50 of 11.1 ng/mL.

The molecule B12 returned an EC50 of 5.99 ng/mL.

B13 had an EC50 of 1.58 ng/mL.

B14: the EC50 was 0.74 ng/mL.

B15 had an EC50 of 1.08 ng/mL.

In turn, B16 had an EC50 of 2.2 ng/mL.

For the molecule B17, the EC50 worked out at 130 ng/mL.

In turn, B18 registered an EC50 of 1.82 ng/mL.

In the case of B19, the EC50 is 2.9 ng/mL.

B20 yielded an EC50 of 18.9 ng/mL.

In turn, B21 had an EC50 of 5.29 ng/mL.

Regarding B22, the EC50 is 7.56 ng/mL.

B23 returned an EC50 of 8.12 ng/mL.

B24 yielded an EC50 of 1.27 ng/mL.

B25: a half-maximal response (EC50) required 5.88 ng/mL.

The record behind these values is patent US20220195015A1 (published 2022).
